This assay has as its target TatC from Pisum sativum (thylakoidal) (Pisum sativum (endogenous in pea thylakoids)). Description: native gel or EMSA. (In EMSA bound probe runs differently from free probe, usually more slowly.)

One may read the stoichiometry N as the number of molecules, sites or subunits per partner or assembly. Take “TatC from Pisum sativum (thylakoidal) (natural protein)”: the stoichiometry N was 3.
